According to patent publication US20170283495A1 (published 2017):
Where no end group is shown, it is not given here.

T1: NT-biotin hepcidin-25 (human, NT-biotin (biotin label; NT is not spelled out, taken as the N-terminus))
T1 construct: also called NT-biotin hepcidin-25 tracer
T1 peptide: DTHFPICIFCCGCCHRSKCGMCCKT

T2: mouse hepcidin-1 peptide (mouse)
T2 construct: also called murine hepcidin-1; mouse hepcidin-25
T2 peptide: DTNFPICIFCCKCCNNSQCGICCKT

T3: human hepcidin 10-25 peptide (human, disulfide (positions not given here); also: oxidized and refolded with proper cysteine bonds, pairing not given here)
T3 construct: also called hep 10-25; hHepcidin 10-25
T3 peptide: CCGCCHRSKCGMCCKT

T4: K18-biotin hepcidin-25 (human, biotin on K18)
T4 construct: also called K18-Biotin Hepcidin-25 tracer
T4 peptide: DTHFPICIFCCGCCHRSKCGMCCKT

T5: K24-biotin hepcidin-25 (human, biotin on K24)
T5 construct: also called K24-biotin hepcidin-25 tracer
T5 peptide: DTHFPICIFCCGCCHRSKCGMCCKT

B1: human hepcidin-20 peptide (peptide)
peptide: ICIFCCGCCHRSKCGMCCKT
notes: also called hep-20; hHepcidin-20
B2: human hepcidin-25 (synthetic) (peptide)
peptide: DTHFPICIFCCGCCHRSKCGMCCKT
notes: Synthetic, biologically active 25 aa peptide; also called hep-25; Hep-25
B3: murine anti-hepcidin MAb 583 (antibody, V domains shown)
VH: QIQLVQSGPELKKPGETVKISCKASGYTFTNYGMNWVKQAPGKGLKWMGWINTYTGEPTYADDFKGRFAFSLETSASTAYLQINNLKNEDTATYFCTTYATSWYWGQGTTLTVSS
VL: DIVLTQSPASLAVSLGQRATISCRASESVDSYGNSFMHWYQQKPGQPPKLLIYRASNLESGIPARFSGSGSRTDFTLTINPVEADDVATYYCQQSNEDLTFGGGTKLEIK
notes: Murine IgG from a hybridoma, purified on protein G (Protein A in some legends); detected with anti-mouse IgG1 (H+L); also called 5A3; hybridoma 5A3

Key:
[1] = target: B3; test: competition ELISA, MAb 583 coated, NT-biotin hepcidin-25 tracer
[2] = target: B3; test: C-ELISA, purified MAb 583 coated, hepcidin-25 against NT-biotin hepcidin-25 tracer (FIG. 16)
Experimental: FIG. 16. […] The relative binding of the NT-biotin hepcidin-25 tracer (1 ng/well) relative to hepcidin-25, hepcidin-22, and hepcidin-20 was measured by ELISA. Four parameter logistical regression analysis was conducted using GraphPad Prism software to produce the curves shown.

[3] = target: T6, BAP070-01 human-mouse chimeric MAb 583; test: C-ELISA, BAP070-01 supernatant on Protein G, hepcidin-25 against NT-biotin hepcidin-25 tracer, 4-parameter fit
T6 construct: tested as unpurified CHO cell supernatant (3650 ng/ml IgG); also called BAP070-01 chimera
Experimental: To capture BAP070-01 chimeric antibodies we coated microwell plates with Protein G (150 ng/well) overnight in carbonate coating buffer.
The plate was washed with TBST and one (1) ng/well of NT-biotin hepcidin-25 was mixed with different amounts (0-100 ng) of synthetic hepcidin-25 standard in TBST, 0.25% BLOTTO and added onto the plate to bind competitively. The plate was washed with TBST and SA-HRP (1:2500) added and allowed to bind for 1 hour.
The standard curve shown in FIG. 31 was generated using a four parameter logistical regression (Graphpad Prism; San Diego, Calif.).

NT-biotin hepcidin-25 [4] = target: T1, NT-biotin hepcidin-25; test: ELISA, 583 coated at 100 ng/well, tracer 1 ng/well, SA-HRP
Experimental: (§1) We used a microwell plate ELISA to assess antibody activity. […] The NT-biotin hepcidin-25 tracer was added across the plate at 1 ng/well in TBST, pH 8) containing 0.25% Blotto. The tracer was allowed to bind for 2 hours and the wells were washed in TBST, pH 8 with no Blotto. SA-HRP was added at 1:2500 for 30 minutes, the wells washed in TBST, and TMB substrate added for 10 minutes. Stop buffer was added the OD quantified on a spectrophotometer at 450 nm. An OD of 4 indicates the absorbance is beyond the analytic range of the spectrophotomer.

mouse hepcidin-1 peptide = target: T2, mouse hepcidin-1 peptide; test: competition ELISA, MAb 583 coated, NT-biotin hepcidin-25 tracer
[5] = target: T3, human hepcidin 10-25 peptide; test: as above
K18-biotin hepcidin-25 [6] = target: T4, K18-biotin hepcidin-25; test: Biacore SPR, biotin peptide on chip, MAb 583 at 5 µg/ml
NT-biotin hepcidin-25 [7] = target: T1, NT-biotin hepcidin-25; test: as above
NT-biotin hepcidin-25 [8] = target: T1, NT-biotin hepcidin-25; test: ELISA, 583 coated at 12.5 ng/well, tracer 1 ng/well, SA-HRP
Experimental: as §1

NT-biotin hepcidin-25 [9] = target: T1, NT-biotin hepcidin-25; test: ELISA, 583 coated at 50 ng/well, tracer 1 ng/well, SA-HRP
Experimental: as §1

[10] = target: B1; test: Western blot after non-reducing tricine SDS-PAGE
NT-biotin hepcidin-25 [11] = target: T1, NT-biotin hepcidin-25; test: ELISA, 583 coated at 25 ng/well, tracer 1 ng/well, SA-HRP
Experimental: as §1

K18-biotin hepcidin-25 [12] = target: T4, K18-biotin hepcidin-25; test: Biacore SPR, biotin peptide on neutravidin chip, MAb 583 at 24 µg/ml
Experimental: (§2) Biotinylated hepcidin peptides (NT-biotin-hepcidin-25, K18-biotin-hepcidin-25 and K24-biotin-hepcidin-25) were immobilized in flow cells 2-4 (one peptide species per flow cell) by injecting individual peptides at a concentration of 200 μg/ml at a flow rate of 5 μl/min, for 20 min.
(§3) After 3 minutes, injection was stopped and dissociation was followed for 6 min. Regeneration was performed by injecting 10 mM glycine HCl, pH 1.5 at a flow rate of 10 μl/min for 1 min.

NT-biotin hepcidin-25 [13] = target: T1, NT-biotin hepcidin-25; test: as above
Experimental: as §2, §3

K24-biotin hepcidin-25 = target: T5, K24-biotin hepcidin-25; test: as above
Experimental: as §2, §3

Binder: B1
binding result [1]: binds

Binder: B2
EC50 [2]: ≤ 0.005 µg/mL
EC50 [3]: 0.054 µg/mL

Binder: B3
OD 450 nm (NT-biotin hepcidin-25 [4]): ≥ 4 OD
binding result (mouse hepcidin-1 peptide): no binding (tested: up to 2000 ng/ml)
binding result [5]: no binding (tested: up to 2000 ng/ml)
Kd (K18-biotin hepcidin-25 [6]): ~0.0075 nM
Kd (NT-biotin hepcidin-25 [7]): ~0.018 nM
OD 450 nm (NT-biotin hepcidin-25 [8]): ≥ 4 OD
OD 450 nm (NT-biotin hepcidin-25 [9]): ≥ 4 OD
binding result [10]: binds
OD 450 nm (NT-biotin hepcidin-25 [11]): ≥ 4 OD
Ka (K18-biotin hepcidin-25 [12]): 1.14e+09 M⁻¹
Kd (K18-biotin hepcidin-25 [12]): 0.878 nM
Req (K18-biotin hepcidin-25 [12]): 126 RU
kobs (K18-biotin hepcidin-25 [12]): 0.0102 s⁻¹
koff (K18-biotin hepcidin-25 [12]): 5.59e-05 s⁻¹
kon (K18-biotin hepcidin-25 [12]): 63700 M⁻¹ s⁻¹
Ka (NT-biotin hepcidin-25 [13]): 1.94e+10 M⁻¹
Kd (NT-biotin hepcidin-25 [13]): 0.0516 nM
Req (NT-biotin hepcidin-25 [13]): 78.8 RU
kobs (NT-biotin hepcidin-25 [13]): 0.00977 s⁻¹
koff (NT-biotin hepcidin-25 [13]): 3.15e-06 s⁻¹
kon (NT-biotin hepcidin-25 [13]): 61100 M⁻¹ s⁻¹
Ka (K24-biotin hepcidin-25): 1.8e+08 M⁻¹
Kd (K24-biotin hepcidin-25): 5.54 nM
Req (K24-biotin hepcidin-25): 63.1 RU
kobs (K24-biotin hepcidin-25): 0.0086 s⁻¹
koff (K24-biotin hepcidin-25): 0.000288 s⁻¹
kon (K24-biotin hepcidin-25): 52000 M⁻¹ s⁻¹
